The source of these data is publication PMC10440987, “SLG2 specifically regulates grain width through WOX11 ‐mediated cell expansion control in rice”.

Data set [1] deals with T1, WOX11-MBP (Oryza sativa (rice; cultivar of the …, UniProt Q0D3I7 1-262).
T1 sequence: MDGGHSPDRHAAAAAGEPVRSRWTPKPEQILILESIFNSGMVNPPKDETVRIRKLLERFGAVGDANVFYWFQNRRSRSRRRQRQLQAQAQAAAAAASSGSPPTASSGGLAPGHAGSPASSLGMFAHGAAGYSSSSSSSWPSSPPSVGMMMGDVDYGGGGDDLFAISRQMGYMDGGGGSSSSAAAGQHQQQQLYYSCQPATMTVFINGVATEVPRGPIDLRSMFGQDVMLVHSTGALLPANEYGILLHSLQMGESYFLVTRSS
Briefly: EMSA; LightShift Chemiluminescent EMSA Kit (Thermo 20148), manufacturer's instructions; buffer, salt, pH and temperature not stated. The conditions noted are these: protein: recombinant; tags: MBP; label: 5' biotin; blunt.

The target in data set [2] is T1, WOX11-MBP. Briefly: competition EMSA; unlabelled competitor against biotin hot probe N1; LightShift Chemiluminescent EMSA Kit (Thermo 20148), manufacturer's instructions; buffer, salt, pH and temperature not stated. The conditions noted are these: protein: recombinant; tags: MBP; blunt.

B1: pOsEXPB7 hot probe (dsDNA)
DNA 1: AGGGATCGATCGAAATTAATGGCGGGCAGGAGCAGGA
DNA 2: TCCTGCTCCTGCCCGCCATTAATTTCGATCGATCCCT
As for B1, the binding result with WOX11-MBP [1] is given as “binds”.

B2: pOsEXPB7 cold probe (dsDNA)
DNA 1: AGGGATCGATCGAAATTAATGGCGGGCAGGAGCAGGA
DNA 2: TCCTGCTCCTGCCCGCCATTAATTTCGATCGATCCCT
With B2, the binding result in the data set with WOX11-MBP [2] is listed as “binds”.

B3: pOsEXPB7 mutant probe (dsDNA)
DNA 1: AGGGATCGATCGAAATCCATGGCGGGCAGGAGCAGGA
DNA 2: TCCTGCTCCTGCCCGCCATGGATTTCGATCGATCCCT
Take B3: the binding result with WOX11-MBP [1] is on record as “no binding”.
